Measured values from patent publication US6586236.

Target: goat anti-mouse kappa light chain IgG (Southern Biotech)
Assay: phage panning of 1:1 W100/R100 mixture on coated wells, oligonucleotide hybridization of plaque lifts

Substance: DB3 R100 VH/κ-gpVIII fusion polypeptide displayed on JC-M13-88 phage (from UniProt P69541 24-73) (scFv)
- % DB3 R100 variant in DB3 phage eluted, 2 rounds of panning: 82.1%
- % DB3 R100 variant in DB3 phage eluted, 3 rounds of panning: 79.2%
